± gives the standard deviation.
Assay: protein stability index of a GFP-peptide fusion (GPS, HEK-293T) (PSI 1-6); higher = more stable
Settings: c terminus: a fixed tail appended
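Further: 24-mer peptide tiles fused after GFP, lentivirally expressed, FACS-sorted into six equal bins by GFP/DsRed ratio, decoded by Illumina sequencing, PSI is the read-weighted mean bin number.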

Row | Sequence | protein stability index (treatment: DMSO) | protein stability index (treatment: MLN4924 1 uM, 8 h)
1 | TGTPLVAGSPIRHENAVQGSAVEV [ISL2] | 4.48 ± 0.22 | 4.45 ± 0.18
2 | GSAYLFVESSLDKVVLSDAYAHPQ [TRADD] | 2.22 ± 0.35 | 2.37 ± 0.54
3 | STTTTTHITKTVKGGISETRIEKR [EPB41L3] | 4.86 ± 0.2 | 5.01 ± 0.21
4 | STKPSGSPLEEKHDQCKCENLIMF [MATN2] | 3.3 ± 0.15 | 3.41 ± 0.099
5 | SLMPLQKSISPWKSPPQLRQFLPE [DENND6A] | 2.72 ± 0.21 | 2.51 ± 0.52
6 | SDLSRSSRGELIPISPSTEVGGSG [MYBL2] | 5 ± 0.4 | 4.86 ± 0.34
7 | SPNSTPAKTIDTSPPVDLFATASA [SNAP91] | 4.8 ± 0.18 | 4.67 ± 0.15
8 | DITAYLFGFFFGRTPLIKLSPKKT [CDS1] | 3.11 ± 0.64 | 2.73 ± 0.46
9 | AAIKVNDSVPFHLGWNSTERSLRL [MYORG] | 2.61 ± 0.16 | 2.81 ± 0.38
10 | QRRASTVSSVTQVEVDENAYRCGS [NET1] | 5.01 ± 0.45 | 5.02 ± 0.2
11 | VGFIMAGTPMALIVISYIHVAAAV [OR3A1] | 3.27 ± 0.35 | 2.87 ± 0.32
12 | MSREPTPPLPGDMSTGPIAESWCY [SPOPL] | 3.29 ± 0.32 | 3.37 ± 0.47
13 | GKAAQAGVAVGDWVLSIDGENAGS [PDLIM7] | 3.97 ± 0.24 | 4.2 ± 0.42
14 | CYLELFPAHLYFQAHGSEGLTFQG [PLEKHN1] | 2.89 ± 0.53 | 2.31 ± 0.26
15 | RNTHKDLLRFAQVFSQMIHLNETV [FEM1B] | 2.74 ± 0.7 | 2.34 ± 0.48
16 | KKWGINTYKCTKQLLSERFGRGSR [ARFIP2] | 2.65 ± 0.28 | 2.86 ± 0.53
17 | IFFMAAFAFSNGYLASLCMCFGPK [SLC29A1] | 2.42 ± 0.38 | 2.52 ± 0.34
18 | YILLVGYPPFWDEDQHRLYQQIKA [CAMK2D] | 2.46 ± 0.099 | 2.54 ± 0.67
19 | IKDQGGAGEGLVRSANGFPYREDE [MAP2] | 5.13 ± 0.3 | 5.18 ± 0.28
20 | NSKKEEPQELLQSQDFVGEKLGSG [ATE1] | 5.51 ± 0.11 | 5.42 ± 0.23
21 | VSASGKEMDWAQMACHRCLVYLGD [SMG5] | 2.1 ± 0.36 | 2.21 ± 0.52
22 | SPTDIQDSSIIRTTQDLFAINRDT [RHOBTB3] | 4.47 ± 0.15 | 4.67 ± 0.44

Row | Sequence | protein stability index (treatment: DMSO) | protein stability index (treatment: MLN4924 1 uM, 8 h)
23 | QDLVELYLTNCEKLSAKSLQTLRS [ZER1] | 2.1 ± 0.2 | 2.54 ± 0.21
24 | VVTAEAVAVLKGEQEKEAQHKDQT [MAP2] | 5.49 ± 0.12 | 5.28 ± 0.21
25 | NFCKEQAARISNKGKFSTDTKGKP [ZC2HC1A] | 3.78 ± 0.2 | 4.27 ± 0.31
26 | LFQLSCSSTQLNELLLFAVGFIMA [OR3A1] | 2.71 ± 0.45 | 2.98 ± 0.87
27 | LLHNDEYQETMVESTFMYLTLDLP [USP39] | 2.31 ± 0.29 | 2.29 ± 0.34
28 | KSRRKAALSSPRSRKNATQPPNAE [INTS3] | 5.08 ± 0.33 | 4.98 ± 0.39
29 | NSSGDIGKKEIKPFKRFLRKKSKP [SMOC2] | 4.15 ± 0.4 | 4.19 ± 0.68
30 | LLGATKRSMVFKDVLLLGNDYIVP [HNF4A] | 2.28 ± 0.34 | 2.3 ± 0.11
31 | SRSPLKIVKKPKSMQCKVILLDGS [EPB41L3] | 2.52 ± 0.081 | 2.51 ± 0.29
32 | QAQPGEATSGPPGIQPGQEPPVTM [PALM] | 5.6 ± 0.19 | 5.33 ± 0.24
33 | SAVEKEPARAPPEPPHNLFCAPGS [SERTAD3] | 4.95 ± 0.24 | 4.98 ± 0.078
34 | ICTNLCEALQNFFSLACSLMGPSR [M1AP] | 2.33 ± 0.28 | 2.26 ± 0.1
35 | LFMKKNHEEEVKGLQAQIASSGLT [KRT18] | 3.81 ± 0.15 | 3.98 ± 0.27
36 | PQGPPASPSCPEEALAATWEQPWA [PXN] | 4.15 ± 0.39 | 3.96 ± 0.27
37 | GTDVTRCICGFTHDDGYMICCDKC [KMT2E] | 5 ± 0.2 | 5.07 ± 0.12
38 | GQPAPVSMVPPSPAMAASKALGSD [SNAP91] | 5.02 ± 0.32 | 5.01 ± 0.18
39 | PERRRSPGPAPGSPGELEEDLLLP [WEE1] | 5.33 ± 0.28 | 5.37 ± 0.38
40 | SSFFTCNQKCQLRLLKTLETSRSH [ATP23] | 2.44 ± 0.31 | 2.58 ± 0.33
41 | KPLTLEALGHLGNDDSADYQHFLQ [DLC1] | 4.23 ± 0.12 | 4.33 ± 0.15
42 | ISKSLELCNEISLSEIKDAPKVNA [DLC1] | 4.12 ± 0.39 | 4.21 ± 0.066
43 | KLRHLDISRDRLSSYYKFKLTREV [ZER1] | 2.35 ± 0.13 | 2.39 ± 0.31
44 | VDSPKNFNIAGTVVKYRRPMDVYE [ADAMTSL2] | 3.44 ± 0.36 | 3.49 ± 0.54

Row | Sequence | protein stability index (treatment: DMSO) | protein stability index (treatment: MLN4924 1 uM, 8 h)
45 | VIGFAKMIPGFRDLTSEDQIVLLK [VDR] | 2.36 ± 0.51 | 2.42 ± 0.46
46 | PSALVPSVTEYRLDGHTISDLSRS [MYBL2] | 4.25 ± 0.2 | 4.25 ± 0.39
47 | SHKGAEELALALKGNTTLQQLDLR [LRRC45] | 3.99 ± 0.18 | 4.17 ± 0.65
48 | EIKDVLVWTNDQVVHWVQSIGLRD [PPFIA4] | – | 2.25 ± 0.37
49 | DVIGDEICCWSFYGQGRKIAEVCC [KCTD10] | 2.42 ± 0.92 | 2.33 ± 0.54
50 | LKEAPVQDQGYKTLRLRENCVLSS [ZNF8] | 3.88 ± 0.12 | 3.84 ± 0.1
51 | KQPNCSSLFKLKPLSNKTATDDTG [PLD5] | 4.46 ± 0.13 | 4.772 ± 0.045
52 | ESASSQSGCLRISIQKLSNESRYM [NECAB1] | 2.76 ± 0.2 | 2.78 ± 0.31
53 | MGANTSRKPPVFDENEDVNFDHFE [STK32A] | 5.11 ± 0.26 | 5.134 ± 0.042
54 | NWPKNSNGVTQKASAPTYPSLYSS [NANOGP8] | 3.53 ± 0.21 | 3.65 ± 0.25
55 | CPLCTSDRGSCVSTTEGIQLAKEL [RHOBTB3] | 3.23 ± 0.29 | 3.58 ± 0.38
56 | LDWISYQVEKNKYDASAIDFSRCD [ELF3] | 2.93 ± 0.23 | 3.01 ± 0.1
57 | WSECSRTCGEGYQFRVVRCWKMLS [ADAMTSL2] | 3.1 ± 1.8 | 2.19 ± 0.34
58 | AFEFKKPVRPVSRGCLHSHGLQEG [CDC25A] | 2.87 ± 0.28 | 2.82 ± 0.23
59 | SIRLPLDAPLPGSKAKPKPPKQAQ [TBC1D10A] | 4.36 ± 0.09 | 4.72 ± 0.11
60 | LLKTEALKRQAQEEAKGALLGTSG [DAPK3] | 4.89 ± 0.15 | 4.47 ± 0.12
61 | RREKAVHRLRVQQAALRAARLRHQ [NOP53] | 3.6 ± 0.41 | 3.71 ± 0.34
62 | KKSRSPASAEAPGDSGERSEGEAM [ZNF511] | 5.53 ± 0.39 | 5.57 ± 0.1
63 | TFGDHHKDRRFAYGRSDVVVLCFS [RHOBTB1] | 2.38 ± 0.53 | 2.43 ± 0.55
64 | MKQRDNCKIRIQRQLEIMGKEVSG [STX11] | 3.27 ± 0.18 | 3.39 ± 0.33
65 | DVDEDEPGGLVGSADVVSPSGHSD [PPFIA4] | 5.66 ± 0.36 | 5.47 ± 0.12

Reference: the supplement of paper PMC10567573
